Laboratory results: patent publication US20240200091A1, “USE OF PROTOPORPHYRINOGEN OXIDASE” (BEIJING DABEINONG BIOTECHNOLOGY CO., LTD., priority 2021, published 2024)

Assays:
Assay type in all cases: in vivo
Settings in all cases: 7 DAT, number of plants of 24 per genotype, grades
[1] = system: Arabidopsis thaliana T1 plants; assay: oxyfluorfen tolerance of transgenic Arabidopsis thaliana T1 plants (spray, grade of pesticide damage)
Text: (§1) The transformed Arabidopsis thaliana T1 plants were initially selected using glufosinate herbicide. The Arabidopsis thaliana T1 plants (PPO1A) into which the PPO1A nucleotide sequence was introduced, the Arabidopsis thaliana T1 plants (PPO2A) into which the PPO2A nucleotide sequence was introduced, the Arabidopsis thaliana T1 plants (PPO3A) into which the PPO3A nucleotide sequence was introduced, the Arabidopsis thaliana T1 plants (PPO4A) into which the PPO4A nucleotide sequence was introduced, the Arabidopsis thaliana T1 plants (PPO5A) into which the PPO5A nucleotide sequence was introduced, the Arabidopsis thaliana T1 plants (PPO6A) into which the PPO6A nucleotide sequence was introduced, the Arabidopsis thaliana T1 plants (PPO7A) into which the PPO7A nucleotide sequence was introduced, the Arabidopsis thaliana T1 plants (PPO8A) into which the PPO8A nucleotide sequence was introduced, the Arabidopsis thaliana T1 plants (PPO9A) into which the PPO9A nucleotide sequence was introduced, the Arabidopsis thaliana T1 plants (PPO10A) into which the […] nucleotide sequence was introduced, the Arabidopsis thaliana T1 plants (PPO11A) into which the PPO11A nucleotide sequence was introduced, the Arabidopsis thaliana T1 plants (PPO12A) into which the PPO12A nucleotide sequence was introduced, the Arabidopsis thaliana T1 plants (PPO13A) into which the PPO13A nucleotide sequence was introduced, the Arabidopsis thaliana T1 plants (PPO14A) into which the PPO14A nucleotide sequence was introduced, the Arabidopsis thaliana T1 plants (PPO-ATA) into which the PPO-ATA nucleotide sequence was introduced, the Arabidopsis thaliana T1 plants (PPO-APA) into which the PPO-APA nucleotide sequence was introduced, the Arabidopsis thaliana T1 plants (control vector) into which the control vector was introduced, and the wild-type Arabidopsis thaliana plants (CK) (with 24 plants being included in each genotype) (18 days after sowing) were sprayed with oxyfluorfen at three concentrations (180 g ai/ha (one-fold field concentration, 1×), 720 g ai/ha (four-fold field concentration, 4×), and 0 g ai/ha (water, 0×)), saflufenacil at three concentrations (25 g ai/ha (one-fold field concentration, 1×), 100 g ai/ha (four-fold field concentration, 4×), and 0 g ai/ha (water, 0×)), flumioxazin at three concentrations (60 g ai/ha (one-fold field concentration, 1×), 240 g ai/ha (four-fold field concentration, 4×), and 0 g ai/ha (water, 0×), and sulfentrazone at three concentrations (450 g ai/ha (one-fold field concentration, 1×), 900 g ai/ha (two-fold field concentration, 2×), and 0 g ai/ha (water, 0×) to determine the tolerance of Arabidopsis thaliana to the herbicides. After 7 days of spraying (7 DAT), the damage level of each plant caused by the herbicide was evaluated according to the average of the damage levels (%) of plants (the average of the damage levels (%) of plants=the injured leaf area/the total leaf area×[…]), i.e., the grade of pesticide damage: grade 0 means that the growth status of plants is essentially consistent with those sprayed with the blank solvent (water); grade 1 means that the average of the damage levels of plants is less than 10%; grade 2 means that the average of the damage levels of plants is greater than […]; and grade 3 means that the average of the damage levels of plants is 100%. The plants having a growth status falling within grades 0 and 1 are classified as highly resistant plants; those having a growth status falling within grade 2 are classified as poorly resistant plants; and those having a growth status falling within grade 3 are classified as non-resistant plants.

[2] = system: Arabidopsis thaliana T1 plants; assay: flumioxazin tolerance of transgenic Arabidopsis thaliana T1 plants (spray, grade of pesticide damage)
Text: as §1

[3] = system: Arabidopsis thaliana T1 plants; assay: sulfentrazone tolerance of transgenic Arabidopsis thaliana T1 plants (spray, grade of pesticide damage)
Text: as §1

[4] = system: Arabidopsis thaliana T1 plants; assay: saflufenacil tolerance of transgenic Arabidopsis thaliana T1 plants (spray, grade of pesticide damage)
Text: as §1

B1: PPO4A: nucleotide sequence encoding microbial protoporphyrinogen oxidase PPO4 (SEQ ID NO:4), Arabidopsis thaliana/soybean common codon usage bias (nucleic acid)
DNA: ATGAAAACCCTGATTCTTTACAGCAGTCATGATGGACAGACCAAGAAAATCTCAGAGTTCCTTACGGCGTTGTTGAATGGCGAAGTTCTAGTTGATGCTCTACGTGAAGATTATGATATTGAAACATTTGACCAAGTTATAATCGGAGCTTCCATAAGGTATGGTCACTTTTCTAAGACTTTAGACAGATTTGTGGTGAGAAACAGGGTACATCTGGAACAAAAACGAGCAGTATTCTTCTCTGTTAACTTAACTGCCCGAAAAGAAGGTAAAGACAATCCTGAAACTAATGTCTATGTCAGAAAGTTTCTCCAGAGAACAAAATGGCAACCAAAACTTGCTGCCGTCTTCGCAGGTGCACTCTTGTACCCGAGATATAAGTGGTTTGATCGTGTGATGATTCGGTTTATCATGAAGATTACTGGGGGAGAGACGGATATAACAAAGGAGATTGAGTACACAGATTGGGAAAAGGTTAGGGAGTTCGCTCAGAGAATCAACCGCCTTGAGAAATGA
modifications: PPO4A Nucleotide Sequence
The grade of pesticide damage/plant: grade 0 ([1]; oxyfluorfen 180 g ai/ha (1×)): 24 plant | The grade of pesticide damage/plant: grade 1 ([1]; oxyfluorfen 180 g ai/ha (1×)): 0 plant | The grade of pesticide damage/plant: grade 2 ([1]; oxyfluorfen 180 g ai/ha (1×)): 0 plant | The grade of pesticide damage/plant: grade 3 ([1]; oxyfluorfen 180 g ai/ha (1×)): 0 plant | The grade of pesticide damage/plant: grade 0 ([1]; oxyfluorfen 720 g ai/ha (4×)): 22 plant | The grade of pesticide damage/plant: grade 1 ([1]; oxyfluorfen 720 g ai/ha (4×)): 2 plant | The grade of pesticide damage/plant: grade 2 ([1]; oxyfluorfen 720 g ai/ha (4×)): 0 plant | The grade of pesticide damage/plant: grade 3 ([1]; oxyfluorfen 720 g ai/ha (4×)): 0 plant | The grade of pesticide damage/plant: grade 0 ([2]; flumioxazin 60 g ai/ha (1×)): 24 plant | The grade of pesticide damage/plant: grade 1 ([2]; flumioxazin 60 g ai/ha (1×)): 0 plant | The grade of pesticide damage/plant: grade 2 ([2]; flumioxazin 60 g ai/ha (1×)): 0 plant | The grade of pesticide damage/plant: grade 3 ([2]; flumioxazin 60 g ai/ha (1×)): 0 plant | The grade of pesticide damage/plant: grade 0 ([2]; flumioxazin 240 g ai/ha (4×)): 22 plant | The grade of pesticide damage/plant: grade 1 ([2]; flumioxazin 240 g ai/ha (4×)): 2 plant | The grade of pesticide damage/plant: grade 2 ([2]; flumioxazin 240 g ai/ha (4×)): 0 plant | The grade of pesticide damage/plant: grade 3 ([2]; flumioxazin 240 g ai/ha (4×)): 0 plant | The grade of pesticide: grade 0 ([3]; sulfentrazone 450 g ai/ha (1×)): 24 | The grade of pesticide: grade 1 ([3]; sulfentrazone 450 g ai/ha (1×)): 0 | The grade of pesticide: grade 2 ([3]; sulfentrazone 450 g ai/ha (1×)): 0 | The grade of pesticide: grade 3 ([3]; sulfentrazone 450 g ai/ha (1×)): 0 | The grade of pesticide: grade 0 ([3]; sulfentrazone 900 g ai/ha (2×)): 18 | The grade of pesticide: grade 1 ([3]; sulfentrazone 900 g ai/ha (2×)): 6 | The grade of pesticide: grade 2 ([3]; sulfentrazone 900 g ai/ha (2×)): 0 | The grade of pesticide: grade 3 ([3]; sulfentrazone 900 g ai/ha (2×)): 0 | The grade of pesticide damage/plant: grade 0 ([4]; saflufenacil 25 g ai/ha (1×)): 24 plant | The grade of pesticide damage/plant: grade 1 ([4]; saflufenacil 25 g ai/ha (1×)): 0 plant | The grade of pesticide damage/plant: grade 2 ([4]; saflufenacil 25 g ai/ha (1×)): 0 plant | The grade of pesticide damage/plant: grade 3 ([4]; saflufenacil 25 g ai/ha (1×)): 0 plant | The grade of pesticide damage/plant: grade 0 ([4]; saflufenacil 100 g ai/ha (4×)): 4 plant | The grade of pesticide damage/plant: grade 1 ([4]; saflufenacil 100 g ai/ha (4×)): 20 plant | The grade of pesticide damage/plant: grade 2 ([4]; saflufenacil 100 g ai/ha (4×)): 0 plant | The grade of pesticide damage/plant: grade 3 ([4]; saflufenacil 100 g ai/ha (4×)): 0 plant

B2: PPO5A: nucleotide sequence encoding microbial protoporphyrinogen oxidase PPO5 (SEQ ID NO:5), Arabidopsis thaliana/soybean common codon usage bias (nucleic acid)
DNA: ATGAAGACTCTTATCCTCTACTTCACAACAGACGGCCAAACGAAAAAGATTGCCGAGAGACTGGCTGATGTGATTACTCATGAAGTGGAGCTAATCTCCTTGAAAGATCAAGCTGTTGATTTTGCTCAGAAGATGGCTAATGTTGACCAAGTAGTCATTGGAGCGAGTATAAGGTATGGTCACTTCAGCCCTCTTGTTTATCAGTTTATTGAACAACATTATGCAATGTTGAATGAGAAGAAAACCGCTTTTTATGGAGTGAATCTCACAGCAAGGAAAGCAAATCGAAACACCCCAACCACAAATACTTACATCCGGAACTTCTTAGCAAAGGTGAAATGGCAACCTAACTATGTTGAGGTCATAGCTGGTGCCTTGTTTTACCCGCGTTACAGATTCATTGATAGAATGATGATTCGCTTCATCATGAAAGTAACGAAAGGAGAAACTGATGTTTCAAAAGAATATGAATACACAAACTGGCAGCAAGTTGAAGAGTTTGGGAAGAAGCTTTCTGATCAGTTAATATGA
modifications: PPO5A Nucleotide Sequence
The grade of pesticide damage/plant: grade 0 ([1]; oxyfluorfen 180 g ai/ha (1×)): 24 plant | The grade of pesticide damage/plant: grade 1 ([1]; oxyfluorfen 180 g ai/ha (1×)): 0 plant | The grade of pesticide damage/plant: grade 2 ([1]; oxyfluorfen 180 g ai/ha (1×)): 0 plant | The grade of pesticide damage/plant: grade 3 ([1]; oxyfluorfen 180 g ai/ha (1×)): 0 plant | The grade of pesticide damage/plant: grade 0 ([1]; oxyfluorfen 720 g ai/ha (4×)): 22 plant | The grade of pesticide damage/plant: grade 1 ([1]; oxyfluorfen 720 g ai/ha (4×)): 2 plant | The grade of pesticide damage/plant: grade 2 ([1]; oxyfluorfen 720 g ai/ha (4×)): 0 plant | The grade of pesticide damage/plant: grade 3 ([1]; oxyfluorfen 720 g ai/ha (4×)): 0 plant | The grade of pesticide damage/plant: grade 0 ([2]; flumioxazin 60 g ai/ha (1×)): 24 plant | The grade of pesticide damage/plant: grade 1 ([2]; flumioxazin 60 g ai/ha (1×)): 0 plant | The grade of pesticide damage/plant: grade 2 ([2]; flumioxazin 60 g ai/ha (1×)): 0 plant | The grade of pesticide damage/plant: grade 3 ([2]; flumioxazin 60 g ai/ha (1×)): 0 plant | The grade of pesticide damage/plant: grade 0 ([2]; flumioxazin 240 g ai/ha (4×)): 21 plant | The grade of pesticide damage/plant: grade 1 ([2]; flumioxazin 240 g ai/ha (4×)): 3 plant | The grade of pesticide damage/plant: grade 2 ([2]; flumioxazin 240 g ai/ha (4×)): 0 plant | The grade of pesticide damage/plant: grade 3 ([2]; flumioxazin 240 g ai/ha (4×)): 0 plant | The grade of pesticide: grade 0 ([3]; sulfentrazone 450 g ai/ha (1×)): 24 | The grade of pesticide: grade 1 ([3]; sulfentrazone 450 g ai/ha (1×)): 0 | The grade of pesticide: grade 2 ([3]; sulfentrazone 450 g ai/ha (1×)): 0 | The grade of pesticide: grade 3 ([3]; sulfentrazone 450 g ai/ha (1×)): 0 | The grade of pesticide: grade 0 ([3]; sulfentrazone 900 g ai/ha (2×)): 20 | The grade of pesticide: grade 1 ([3]; sulfentrazone 900 g ai/ha (2×)): 4 | The grade of pesticide: grade 2 ([3]; sulfentrazone 900 g ai/ha (2×)): 0 | The grade of pesticide: grade 3 ([3]; sulfentrazone 900 g ai/ha (2×)): 0 | The grade of pesticide damage/plant: grade 0 ([4]; saflufenacil 25 g ai/ha (1×)): 24 plant | The grade of pesticide damage/plant: grade 1 ([4]; saflufenacil 25 g ai/ha (1×)): 0 plant | The grade of pesticide damage/plant: grade 2 ([4]; saflufenacil 25 g ai/ha (1×)): 0 plant | The grade of pesticide damage/plant: grade 3 ([4]; saflufenacil 25 g ai/ha (1×)): 0 plant | The grade of pesticide damage/plant: grade 0 ([4]; saflufenacil 100 g ai/ha (4×)): 0 plant | The grade of pesticide damage/plant: grade 1 ([4]; saflufenacil 100 g ai/ha (4×)): 24 plant | The grade of pesticide damage/plant: grade 2 ([4]; saflufenacil 100 g ai/ha (4×)): 0 plant | The grade of pesticide damage/plant: grade 3 ([4]; saflufenacil 100 g ai/ha (4×)): 0 plant
